Tests used:
[1] = Saturation mutagenesis of SEQ ID NO:109: dicamba decarboxylation activity of point mutants (carbon dioxide released); settings: decarboxylation activity (carbon dioxide released) of point mutant compared with unmutated backbone protein; backbone SEQ ID NO: 109
[2] = 14C assay with IPTG-induced recombinant E. coli cells: 14CO2 captured from [14C]-carboxyl-labeled dicamba; settings: for decarboxylation activity of dicamba: among the 108 sequences tested, recombinant E. coli cells; for Enzymatic Detection level: dicamba decarboxylation activity of the protein of the given SEQ ID NO, High / Low / No; for Dicamba Decarboxylase Activity: induced recombinant E. coli cells, [14C]-carboxyl-labeled dicamba, 14CO2 capture

B1: 19 (protein, listed as Talaromyces marneffei)
chain: MATPIITLEEHYISSAIRDASETDHYAVFPSQIISKLNTLSTERLQDLDNGHVSLQVISHGPGAQPPYLCQAANDELASAISANPTRFAGFALLPIAEPQLAVQELERCITQHKFVGALIDNHTNGQFYDDQKFWPVFEKAQELDAPIYVHPSYPDEESGVAAHYRGNYDDRIAAALGAYGWGWHSDTALSILRLFAAGLFDTYPNIKIIIGHMGEMLPFQLERVIGIASRFGRSRGLREVWTQNIWVTTSGMFALAPLACLLQTMPIERVLYSVDYPFSANEKGFAFLEEIKKSGLIKEGEDWERFLYKNAQELLKVNV
[1]
  Fold Activity: 1.6
[2]
  decarboxylation activity of dicamba: showed decarboxylation activity of dicamba
  Enzymatic Detection level: High
  Dicamba Decarboxylase Activity: High

B2: 42 (protein)
chain: MAQGKIALEEHFAIPDTLQDSAGFVPGDYWKELSARLLDIHEQRLMQMDAYGIEKMILSLNAPAVQAIPDKAKALEISRRANDFLAEQCARNPDRFLGFAALPLQDPDAATAELQRCVKTLGFVGALVNGFSQEGDGVTPLYYDLPQYRGFWAEVEKLAVPFYLHPRNPLPQDSRIYAGHPWLMGPTWAFAQETAVHALRLVGSGLFDDHPALRIILGHMGEGLPYMMWRIDNRNAWVKVAPNYPAKRRIADYFNENFYITTSGNFRTQSLVDAMLEIGADRILFSTDWPFENIDHASDWFDTATISEADRLKIGRTNAATLFNLES
modifications: Agrobacterium radiobacter
[1]
  Fold Activity: 1.7
[2]
  Enzymatic Detection level: Low
  Dicamba Decarboxylase Activity: Low

B3: 38 (protein, listed as Variovorax paradoxus)
chain: MAQGKIGLEEHFAIPQTLQDSAGFVPGVYWKELSSRLLDIHDGRLRQMDEHGMEMMILSLNAPAVQAVADPVKAYELAVRANDFLAEQVAKRPDRFQAFAALPMQDPEKATQELERCMSVLGFRGALVNGFSQVGTPDNVAYYDAPQYAPFWAAAERLDAPFYLHPRNPIASWAQIYEGHPWLLGPTWAFAQETAVHALRLMASGLFDRHPGLKIILGHLGEGLPYNMWRVDHRNAWVKAPKGYPAKRKLCEYFQENFYLTTSGNFRTQTLIDAMLEVGSDRILFSTDWPFENIDHASNWFNDTSISEADRKKIGRTNAMSLFKLA
[1]
  Fold Activity: 1.8
[2]
  Enzymatic Detection level: Low
  Dicamba Decarboxylase Activity: Low

B4: 37 (protein, listed as Burkholderia gladioli)
chain: MATFSNVKKIALEEHFAIAETIEDSAGFVPPDDWVELRGRLLDIQERRLAEMDRAGIELMVLSLNAPAVQAIRDPRQAVELARRANDYLAEQVARRPDRFRAFAALPMQAPEQAIREAERCVRELGFVGALVNGFSEAEDGAELYYDLPRYRPFWAALEALEVPFYLHPRNPLAGRAPIYDGHSWLMGPTWAFGQETAVHALRLMGSGLFDAHPRLQIILGHMGEGLPYSMWRVDNRNAWVSAKPNYPAEKPIAEYFRNNFWLTTSGNFRTQTLIDAMLEIGSDRILFSADWPFENMDHAADWFDHASISENDRIKIGRGNAERLLKLGR
[1]
  Fold Activity: 1.6
[2]
  Enzymatic Detection level: Low
  Dicamba Decarboxylase Activity: Low

B5: 5 (protein, listed as Staphylococcus aureus)
chain: MAQNNMEANQMKSITFEEHYVIEDIQKETMNAISADPKGVPMKVMLEGLEKKTGFTNADELSHHDERIQFMNNQDVQIQVLSYGNGSPSNLVGQKAIELCQKANDQLANYIAQYPNRFVGFATLPINEPEAAAREFERCINDLGFKGALIMGRAQDGFLDQDKYDIIFKTAENLGVPIYLHPAPVNSDIYQSYYKGNYPEVTAATFACFGYGWHIDVGIHAIHLVLSGIFDRYPKLNMIIGHWGEFIPFFLERMDEALFAEHLNHPVSYYFKNNFYITPSGMLTKPQFDLVKKEAGIDRILYAADYPYIEPEKLGVFLDELGLTDEEKEKISYTNGAKLLGLSSNN
[1]
  Fold Activity: 0.8
[2]
  decarboxylation activity of dicamba: showed decarboxylation activity of dicamba
  Enzymatic Detection level: High
  Dicamba Decarboxylase Activity: High

B6: 16 (protein, listed as Staphylococcus aureus)
chain: MAQNNMEANQMKSITFEEHYVIEDIQKETMNAISADPKGVPMKVMLEGLEKKTGFTNADELSHHDERIQFMNNQDVQIQVLSYGNGSPSNLVGQKAIELCQKANDQLANYIAQYPNRFVGFATLPINEPETAAREFERCINDLGFKGALIMGRAQDGFLDQDKYDIIFKTAENLGVPIYLHPAPVNSDIYQSYYKGNYPEVTAATFACFGYGWHIDVGIHAIHLVLSGIFDRYPKLNMIIGHWGEFIPFFLERMDEALFAEHLNHPVSYYFKNNFYITPSGMLTKPQFDLVKKEAGIDRILYAADYPYIEPEKLGVFLDELGLTDEEKEKISYTNGAKLLGLSSNN
[1]
  Fold Activity: 1.1
[2]
  decarboxylation activity of dicamba: showed decarboxylation activity of dicamba
  Enzymatic Detection level: High
  Dicamba Decarboxylase Activity: High

B7: 26 (protein, listed as Variovorax paradoxus)
chain: MATHMAPMKNKIALEEHFAIDLTIADSQVYARPEVWQGLKSNLLDFEQQRLEKMDEWGTEFSILSLNSPAVQGIPDAKRAIEVAQRANDVLAEQVKRHPTRFGGFAALPMQDPEASARELERCVNQLGFHGFLVNGFSQVGDENIVVYYDDARFNDFWTAAAALKKPFYMHPRDPLLAREPIYDGAHWLTGPTWAFAMETAIHALRLMSSGMFDRHPALQMILGHFGEGIPFNIWRVDHILRKGRRGMPCDKEIGEYLRSNVHITTSGNFRTPTLLSTMLEVGSDRIMYSVDYPFEKHEDAARWFDTCEISENDRQKIGRDNARKLFGLK
[1]
  Fold Activity: 1.2
[2]
  decarboxylation activity of dicamba: showed decarboxylation activity of dicamba
  Enzymatic Detection level: High
  Dicamba Decarboxylase Activity: High

B8: 22 (protein, listed as Staphylococcus epidermidis)
chain: MAKSINFEEHYVVDDIQKETMKYMSSDPNGVPMQTMLKGLEQKSGFTNADDITKHDERIKFMDEHDVEMQVLSYGNGAPSNLEGERAIELCQQANDTLAKYVNEHPDRFVGFATLPINEPQAAVEEFKRCIKELGFKGALIMGHPKNGFLDQDQYDDLFATAEALNVPIYLHPSPVQSDVYQAYYKGNYSDVTAATFACFGYGWHVDVGIHAIHLVLSGVFDRHPNLNMIIGHWGEFVPFFLERMDDILFADHLEHPISYYFKNNFYITPSGMLTKPQFDLVKAEVGVDRILYSADYPYVEPDKLGTFLDELDLTEEEKEKISYKNGAKLLGLEK
[1]
  Fold Activity: 1.6
[2]
  decarboxylation activity of dicamba: showed decarboxylation activity of dicamba
  Enzymatic Detection level: High
  Dicamba Decarboxylase Activity: High

B9: 21 (protein, listed as Agrobacterium tumefaciens)
chain: MAQGKVALEEHFAIPETLQDSAGFVPGDYWKELQHRLLDIQDTRLKLMDAHGIETMILSLNAPAVQAIPDRKKAIEIARRANDVLAEECARRPDRFLAFAALPLQDPDAATQELQRCVNDLGFVGALVNGFSQEGDGQTPLYYDLPQYRPFWGEVEKLDVPFYLHPRNPLPQDSRIYDGHPWLLGPTWAFAQETAVHALRLMASGLFDAHPRLNIILGHMGEGLPYMMWRIDHRNAWVKLPPRYPAKRRFVDYFNENFHITTSGNFRTQTLIDAILEIGADRILFSTDWPFENIDHASDWFNATTIAEADRVKIGRTNARRLFKLDGR
[1]
  Fold Activity: 1.9
[2]
  decarboxylation activity of dicamba: showed decarboxylation activity of dicamba
  Enzymatic Detection level: High
  Dicamba Decarboxylase Activity: High

B10: 39 (protein, listed as Agrobacterium fabrum)
chain: MAQGKVALEEHFAIPETLQDSAGFVPGDCWTELQHRLLDIQDTRLKLMDAHGIETMILSLNAPAVQAIPDKTKAIEIARRANDALAEECAKRPDRFLAFAALPLQDPDAATQELRRCVNDLGFVGALVNGFSQEGDGQTPLYYDLPQYRPFWGEVEKLDVPFYLHPRNPLPQDSRIYDGHPWLLGPTWAFAQETAVHALRLMASGLFDEHPRLDIILGHMGEGLPYMMWRIDHRNAWVKLPPRYPAKRRFVDYFNENFHITTSGNFRTQTLIDAILEIGADRILFSTDWPFENIDHASDWFHATSIAEADRVKIGRTNARRLFKLDGR
[1]
  Fold Activity: 1.6
[2]
  Enzymatic Detection level: No
  Dicamba Decarboxylase Activity: No

B11: 45 (protein)
chain: MANDDLAEVIAAHPDRFAGFAALPMRDPQAAAVELQRAVGTHGFCGAMINGLIEGRFLDDPAFAPLLSTAADLGVPLYLHPSFPPPQVAEIYFGGLAPVLGDLLATAGWGWHAETALHVLRLVATGVFDRLPELWVIVGHMGEMIPFALARIDTVLSPVAQLRQPVAQYFQTNVWFTTSGYTTFPPLQCALSTVGIDRLIFSVDYPYTDNTSARALLDTAPISPVDREKLAHGTVEALLRV
modifications: Mycobacterium sp
[1]
  Fold Activity: 1.7
[2]
  Enzymatic Detection level: No
  Dicamba Decarboxylase Activity: No

B12: 29 (protein, listed as Pseudovibrio sp.)
chain: MAGRRDFLRKSVAAGVGLTAAAQLSAGGAQATVPDTSNIPLITLEEHFTTPELQSKNTSGDKRLFSGGGSRPELLDVGAGRIADMDEAGIDIQVLSTVTPGASKITGAEGVEFTRKFNTWIAEEVIAAYPNRFRAFATLPLSSPEAAADELERSVREYGFVGTMTYGPIDGKFLDHADYAPLLARAEALGVPIYIHPNWPSPTAMQAYYDGLGDDLTSRILSGPGYGWHQEIAVQCLRLIVGGVFDRFPNLQIVVGHMGEGLPFYYWRVGEDLDRIAQKRLQKPVQQYFHDNLWITTSAFFRDELLNLALATMGEDRVMFSVDYPMASAKVGADWLRAADIPLATKEKIGSKNAMKLLGIDKI
[1]
  Fold Activity: 1.5
[2]
  Enzymatic Detection level: No
  Dicamba Decarboxylase Activity: No

B13: 40 (protein, listed as Rhodococcus jostii)
chain: MAQGKIALEEHFAIPETLNDSAGFVPGTYWDELQARLLDIQDVRLKLMDEHNIETMILSLNAPAVQAIPERERAIDIARRANDVLAEECAKRPDRFRGFAALPLQDPDAAAEELRRCVTELGFVGALVNGFSQSATVDGGSTPLYYDLPRYRPFWAEVERLDVPFYLHPRNPLNQDARIYEGHPWLLGPTWAFAQETAVHALRLMASGLFDEHPGLRIVLGHMGEGIPAMLWRIDHRNAWVDVPPAYPAKRRMVDYFTENFFVTTSGNFRTQTLIDLLLELGSERVMFSTDWPFENINHAAEWFDAASISEADRLKIGRTNAATLFKLDR
[1]
  Fold Activity: 1.4
[2]
  Enzymatic Detection level: Low
  Dicamba Decarboxylase Activity: Low

— patent US20160053277A1, “Compositions Having Dicamba Decarboxylase Activity and Methods of Use” (PIONEER HI-BRED INTERNATIONAL, INC., priority 2013, published 2016)
